{"source": "patent US11459364B2", "about": "“Calbindin and BH3 domain chimeric proteins and methods for use” (ProDa Biotech LLC, priority 2014, dated 2022)", "molecules": {"B1": {"name": "D-Nox: chimeric protein, Calbindin D9k host with BH3 domain of Noxia, Sequence Id No. 8; tested conjugated to folate (protein)", "chain": "HMSTKKSPEELKRIFEKYAAKEGDPDQLSKDELKLLIQAEFPCLLKGPNTLDDLFQELDKNPAELEVEMATQLRRFGDKLNFRQKLL", "modifications": "folate conjugate; Chimeric Variant of human protein and a variant of a BH3 domain", "notes": "tested conjugated to folate"}}, "tested_on": "SW620 cells", "assay": "Cell viability of SW620 cells by cell counting after treatment with folate-conjugated chimeric proteins", "format": "cell-based", "conditions": "5 μM, Calbindin D9k host, folate by disulfide bond via 5 kDa PEG, 48 hours", "description": "FIG. 3 illustrates the effects of chimeric proteins having different host peptides and the BH3 domain of Bid on the apoptosis of SW620 cells. […] The SW620 cells were treated with 5 μM of the indicated proteins. The proteins were conjugated to folate by a disulfide bond via a 5 kDa PEG. Cell viability was measured by cell counting 48 hours after treatment with the indicated proteins. Buffer treated cells were used as a reference (100% cell viability). The error bars indicate standard deviations across five repeating experiments.\nFIG. 4 illustrates the effects of chimeric proteins having a Calbindin D9k host peptide and different BH3 domains on the apoptosis of SW620 cells. […] The SW620 cells were treated with 5 μM of the indicated proteins. The proteins were conjugated to folate by a disulfide bond via a 5 kDa PEG. Cell viability was measured by cell counting 48 hours after treatment with the indicated proteins. Buffer treated cells were used as a reference (100% viability). The error bars indicate standard deviations across five repeating experiments.\nFIG. 7 illustrates the effects of a chimeric protein with a Calbindin D9k host protein, a Bid or Bim BH3 domain, and a conjugated folate on SW620 cells. […] Cell viability was measured by counting cells 48 hours after treatment with the indicated proteins. […]"}
{"molecule": "B1", "values": [{"measurement": "induction of apoptosis (cell viability), comparison of BH3 domains", "value": "most effective in inducing apoptosis"}]}
